T1: human B7H3 antigen for detection, 4Ig-B7H3 (SinoBiological cat#11188-H08H) (human, UniProt Q5ZPR3 29-461)
T1 construct: Commercial product; also called human 4Ig-B7H3
T1 sequence: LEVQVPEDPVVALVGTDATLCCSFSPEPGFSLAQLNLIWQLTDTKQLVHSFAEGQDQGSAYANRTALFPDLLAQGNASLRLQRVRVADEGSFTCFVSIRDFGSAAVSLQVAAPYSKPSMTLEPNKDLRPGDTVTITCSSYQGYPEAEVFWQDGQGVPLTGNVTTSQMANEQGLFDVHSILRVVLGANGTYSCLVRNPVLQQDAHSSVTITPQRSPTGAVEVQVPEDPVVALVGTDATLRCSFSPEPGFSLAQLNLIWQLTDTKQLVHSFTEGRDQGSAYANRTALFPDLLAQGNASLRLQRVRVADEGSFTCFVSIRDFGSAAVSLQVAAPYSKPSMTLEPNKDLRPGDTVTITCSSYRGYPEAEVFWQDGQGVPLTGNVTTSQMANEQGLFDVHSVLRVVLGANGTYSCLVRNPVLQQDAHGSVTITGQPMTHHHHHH

T2: human B7H3 antigen for screening and detection, 2Ig-B7H3 (R&D cat#1949-B3-050/CF) (human, UniProt Q5ZPR3 29-245)
T2 construct: Commercial product; also called human 2Ig-B7H3
T2 sequence: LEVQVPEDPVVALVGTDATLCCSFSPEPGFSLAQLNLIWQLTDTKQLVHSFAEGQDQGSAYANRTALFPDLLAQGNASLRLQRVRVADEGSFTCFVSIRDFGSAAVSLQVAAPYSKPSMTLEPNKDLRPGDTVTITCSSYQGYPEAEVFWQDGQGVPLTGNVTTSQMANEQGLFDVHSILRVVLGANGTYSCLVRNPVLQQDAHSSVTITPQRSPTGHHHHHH

T3: murine B7H3 antigen for screening and detection (R&D cat#1397-B3-050/CF) (mouse, UniProt Q8VE98 29-244)
T3 construct: Commercial product; also called mouse B7H3
T3 sequence: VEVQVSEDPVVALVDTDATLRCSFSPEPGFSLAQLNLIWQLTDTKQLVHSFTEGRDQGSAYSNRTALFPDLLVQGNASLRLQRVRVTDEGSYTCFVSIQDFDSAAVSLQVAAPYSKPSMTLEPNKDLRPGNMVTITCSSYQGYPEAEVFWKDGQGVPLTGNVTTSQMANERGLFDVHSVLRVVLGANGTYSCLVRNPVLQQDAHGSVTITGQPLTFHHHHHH


Tests used:
[1] = target: T1, human B7H3 antigen for detection, …; test: ELISA, antigen coated at 1 ug/ml, HRP anti-human IgG Fc detection
[2] = target: T2, human B7H3 antigen for screening and …; test: as above
[3] = target: T3, murine B7H3 antigen for screening and …; test: ELISA, mouse B7H3 coated at 1 ug/ml, HRP anti-human IgG Fc detection
[4] = target: T1, human B7H3 antigen for detection, …; test: SPR (Biacore T200), antibody captured on Protein A chip, antigen in flow, 1:1 Langmuir fit
[5] = target: T2, human B7H3 antigen for screening and …; test: as above
[6] = target: T2, human B7H3 antigen for screening and …; test: SPR (Biacore T200), ADC captured on Protein A chip, antigen in flow, 1:1 Langmuir fit (column of the single value inferred)
[7] = target: T1, human B7H3 antigen for detection, …; test: as above
[8] = target: T1, human B7H3 antigen for detection, …; test: ELISA, antigen coated at 1 ug/ml, HRP anti-human IgG Fc detection (column of the single value not certain)
[9] = target: T1, human B7H3 antigen for detection, …; test: SPR (Biacore T200), ADC captured on Protein A chip, antigen in flow, 1:1 Langmuir fit
[10] = target: T2, human B7H3 antigen for screening and …; test: as above

Binder	EC50 [1] [nM]	EC50 [2] [nM]	EC50 [3] [nM]	Kd [4] [nM]	Kd [5] [nM]	Kd [6] [nM]	Kd [7] [nM]	EC50 [8] [nM]	Kd [9] [nM]	Kd [10] [nM]
B7H3-h1702-L2-MC-MMAF (antibody-drug conjugate of h1702 with MC-MMAF) (antibody, human IgG1, lambda, MC-MMAF coupled through a propylthiol linker (L2) to lysine residues of the antibody; positions not given; average y = 1.76 per antibody, also called h1702-MMAF) heavy: not shown light: QTVVTQEPSFSVSPGGTVTLTCGLSSGSVSTSHYPSWYQQTPGQAPRMLIYNTNTRSSGVPDRFSGSILGNKAALTITGAQADDESDYYCAIHVDRDIWVFGGGTKLTVLGQPKANPTVTLFPPSSEELQANKATLVCLISDFYPGAVTVAWKADGSPVKAGVETTKPSKQSNNKYAASSYLSLTPEQWKSHRSYSCQVTHEGSTVEKTVAPTECS	0.18	0.16	59			452				
B7H3-h1702-cys-3024 (antibody-drug conjugate of h1702 with drug-linker 3024 on cysteines) (antibody, human IgG1, lambda, drug-linker 3024 on cysteine thiols after TCEP reduction; positions not given; average y = 3.5 per antibody) heavy: not shown light: QTVVTQEPSFSVSPGGTVTLTCGLSSGSVSTSHYPSWYQQTPGQAPRMLIYNTNTRSSGVPDRFSGSILGNKAALTITGAQADDESDYYCAIHVDRDIWVFGGGTKLTVLGQPKANPTVTLFPPSSEELQANKATLVCLISDFYPGAVTVAWKADGSPVKAGVETTKPSKQSNNKYAASSYLSLTPEQWKSHRSYSCQVTHEGSTVEKTVAPTECS							11.2	0.29		
B7H3-h1702-L2-3024 (antibody-drug conjugate of h1702 with drug-linker 3024) (antibody, human IgG1, lambda, drug-linker 3024 coupled through a propylthiol linker (L2) to lysine residues of the antibody; positions not given; average y = 2.05 per antibody, also called h1702-3024) heavy: not shown light: QTVVTQEPSFSVSPGGTVTLTCGLSSGSVSTSHYPSWYQQTPGQAPRMLIYNTNTRSSGVPDRFSGSILGNKAALTITGAQADDESDYYCAIHVDRDIWVFGGGTKLTVLGQPKANPTVTLFPPSSEELQANKATLVCLISDFYPGAVTVAWKADGSPVKAGVETTKPSKQSNNKYAASSYLSLTPEQWKSHRSYSCQVTHEGSTVEKTVAPTECS	0.26	0.17	131						10.5	580
B7H3-h1702DS-cys-3024 (antibody-drug conjugate of h1702-DS with drug-linker 3024 on cysteines) (antibody, human IgG1, lambda, drug-linker 3024 on cysteine thiols after TCEP reduction; positions not given; average y = 3.55 per antibody) heavy: not shown light: DTVVTQEPSFSVSPGGTVTLTCGLSSGSVSTSHYPSWYQQTPGQAPRMLIYNTNTRSSGVPDRFSGSILGNKAALTITGAQADDESDYYCAIHVDRDIWVFGGGTKLTVLGQPKANPTVTLFPPSSEELQANKATLVCLISDFYPGAVTVAWKADGSPVKAGVETTKPSKQSNNKYAASSYLSLTPEQWKSHRSYSCQVTHEGSTVEKTVAPTEC							10.6	0.3		

Further lines, results first:

EC50 [1] [nM]	EC50 [2] [nM]	EC50 [3] [nM]	Kd [4] [nM]	Kd [5] [nM]	Kd [6] [nM]	Kd [7] [nM]	EC50 [8] [nM]	Kd [9] [nM]	Kd [10] [nM]	Binder
0.16	0.11	18.1	8.55	797						h1702 antibody (fully human anti-B7H3 full-length antibody) (antibody, human IgG1, lambda, IgG1 heavy chain, lambda light chain; naked antibody expressed in HEK293E cells; also called B7H3-h1702) heavy: not shown light: QTVVTQEPSFSVSPGGTVTLTCGLSSGSVSTSHYPSWYQQTPGQAPRMLIYNTNTRSSGVPDRFSGSILGNKAALTITGAQADDESDYYCAIHVDRDIWVFGGGTKLTVLGQPKANPTVTLFPPSSEELQANKATLVCLISDFYPGAVTVAWKADGSPVKAGVETTKPSKQSNNKYAASSYLSLTPEQWKSHRSYSCQVTHEGSTVEKTVAPTECS
						0.778	0.09			B7H3-h1704-3-cys-3024 (antibody-drug conjugate of humanized h1704-3 with drug-linker 3024 on cysteines) (antibody, human IgG1, kappa, V domains shown, drug-linker 3024 on cysteine thiols after TCEP reduction; positions not given; average y = 3.4 per antibody, Antibody-drug conjugate made from antibody h1704-3 (IgG1, kappa)) VH: EVQLVESGGGLVKPGGSLRLSCAASGFTFSRYGMSWVRQAPGKGLEWVSAISSGGGSIYYPDTVKGRLTISRDNAKNTLYLQMNSLRAEDTAVYYCTRHYLLFEMDYWGQGTTVTVSS VL: DIVLTQSPSFLSASVGDRVTITCKASQNVNTAVAWYQQKPGKAPKLLIFSASNRYTGVPSRFSGSGSGTDFTLTISSLQPEDVAAYFCQQYSSSLTFGGGTKLEIKR
3.08	2.36	116			193					B7H3-h1703-L2-MC-MMAF (antibody-drug conjugate of h1703 with MC-MMAF) (antibody, human IgG1, kappa, V domains shown, MC-MMAF coupled through a propylthiol linker (L2) to lysine residues of the antibody; positions not given; average y = 2.29 per antibody, also called h1703-MMAF) VH: QVQLQESGGGLVQPGGSLRLSCAASGFTFSSYAMSWVRQAPGKGLEWVSAISGSGGSTYYADSVKGRYTISRDNSKNTLYLQMNSLRAEDTAVYYCAKGVGPVHALDVWGQGTTVTVSS VL: DIRLTQSPSSLSASVGDRVTITCRASQSISTYLNWYQQKPGKAPILLINAVSGLQSGVPSRFSGSGSGTHFTLTITSLQPEDFATYYCQQSYSTPMWTFGQGTKVEIKR
4.97	15.1	115							219	B7H3-h1703-L2-3024 (antibody-drug conjugate of h1703 with drug-linker 3024) (antibody, human IgG1, kappa, V domains shown, drug-linker 3024 coupled through a propylthiol linker (L2) to lysine residues of the antibody; positions not given; average y = 1.62 per antibody, also called h1703-3024) VH: QVQLQESGGGLVQPGGSLRLSCAASGFTFSSYAMSWVRQAPGKGLEWVSAISGSGGSTYYADSVKGRYTISRDNSKNTLYLQMNSLRAEDTAVYYCAKGVGPVHALDVWGQGTTVTVSS VL: DIRLTQSPSSLSASVGDRVTITCRASQSISTYLNWYQQKPGKAPILLINAVSGLQSGVPSRFSGSGSGTHFTLTITSLQPEDFATYYCQQSYSTPMWTFGQGTKVEIKR
2.1	10.3	86.7		448						h1703 antibody (fully human anti-B7H3 full-length antibody) (antibody, human IgG1, kappa, V domains shown, IgG1 heavy chain, kappa light chain; naked antibody; also called B7H3-h1703) VH: QVQLQESGGGLVQPGGSLRLSCAASGFTFSSYAMSWVRQAPGKGLEWVSAISGSGGSTYYADSVKGRYTISRDNSKNTLYLQMNSLRAEDTAVYYCAKGVGPVHALDVWGQGTTVTVSS VL: DIRLTQSPSSLSASVGDRVTITCRASQSISTYLNWYQQKPGKAPILLINAVSGLQSGVPSRFSGSGSGTHFTLTITSLQPEDFATYYCQQSYSTPMWTFGQGTKVEIKR

Source: WO2019024911A1 (dated 2019)
